Experimental data published in US20120321699A1.

Key:
RNP autoantigen [1] = test: Athena assay, mAb 12.5 ug/ml; positive >50
SSA autoantigen [2] = test: Athena assay, mAb 12.5 ug/ml; positive >50
SSB autoantigen [3] = test: Athena assay, mAb 12.5 ug/ml; positive >50
Histone autoantigen [4] = test: Athena assay, mAb 12.5 ug/ml; positive >50
Sm autoantigen [5] = test: Athena assay, mAb 12.5 ug/ml; positive >50
Scl 70 autoantigen [6] = test: Athena assay, mAb 12.5 ug/ml; positive >50
centromere B autoantigen [7] = test: Athena assay, mAb 12.5 ug/ml; positive >50
Jo 1 autoantigen [8] = test: Athena assay, mAb 12.5 ug/ml; positive >50
[9] = molecular target: A244gD+ gp120 (herpes simplex virus; HIV-1); test: SPR
Chain of A244gD+ gp120 (herpes simplex virus; HIV-1) (Q69091 26-52): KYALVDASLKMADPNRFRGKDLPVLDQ

A244 gD- gp120 (HIV-1) = test: SPR
[10] = molecular target: HV00044 (6240 TZ5 140C) (HIV-1); test: SPR
RNP autoantigen [11] = test: Athena assay, mAb 50 ug/ml; positive >50
SSA autoantigen [12] = test: Athena assay, mAb 50 ug/ml; positive >50
SSB autoantigen [13] = test: Athena assay, mAb 50 ug/ml; positive >50
Histone autoantigen [14] = test: Athena assay, mAb 50 ug/ml; positive >50
Sm autoantigen [15] = test: Athena assay, mAb 50 ug/ml; positive >50
Scl 70 autoantigen [16] = test: Athena assay, mAb 50 ug/ml; positive >50
centromere B autoantigen [17] = test: Athena assay, mAb 50 ug/ml; positive >50
Jo 1 autoantigen [18] = test: Athena assay, mAb 50 ug/ml; positive >50
[19] = molecular target: Influenza HA (Wisconsin) (influenza virus); test: Luminex assay, antibody 50 µg/ml
HCV E2 (HCV) = test: Luminex assay, antibody 50 µg/ml
RNP autoantigen [20] = test: Athena assay, mAb 6.25 ug/ml; positive >50
SSA autoantigen [21] = test: Athena assay, mAb 6.25 ug/ml; positive >50
SSB autoantigen [22] = test: Athena assay, mAb 6.25 ug/ml; positive >50
Histone autoantigen [23] = test: Athena assay, mAb 6.25 ug/ml; positive >50
Sm autoantigen [24] = test: Athena assay, mAb 6.25 ug/ml; positive >50
Scl 70 autoantigen [25] = test: Athena assay, mAb 6.25 ug/ml; positive >50
centromere B autoantigen [26] = test: Athena assay, mAb 6.25 ug/ml; positive >50
Jo 1 autoantigen [27] = test: Athena assay, mAb 6.25 ug/ml; positive >50
RNP autoantigen [28] = test: Athena assay, mAb 25 ug/ml; positive >50
SSA autoantigen [29] = test: Athena assay, mAb 25 ug/ml; positive >50
SSB autoantigen [30] = test: Athena assay, mAb 25 ug/ml; positive >50
Histone autoantigen [31] = test: Athena assay, mAb 25 ug/ml; positive >50
Sm autoantigen [32] = test: Athena assay, mAb 25 ug/ml; positive >50
Scl 70 autoantigen [33] = test: Athena assay, mAb 25 ug/ml; positive >50
centromere B autoantigen [34] = test: Athena assay, mAb 25 ug/ml; positive >50
Jo 1 autoantigen [35] = test: Athena assay, mAb 25 ug/ml; positive >50

Substance | Autoreactivity (Athena) (RNP autoantigen [1]) | Autoreactivity (Athena) (SSA autoantigen [2]) | Autoreactivity (Athena) (SSB autoantigen [3]) | Autoreactivity (Athena) (Histone autoantigen [4]) | Autoreactivity (Athena) (Sm autoantigen [5]) | Autoreactivity (Athena) (Scl 70 autoantigen [6]) | Autoreactivity (Athena) (centromere B autoantigen [7]) | Autoreactivity (Athena) (Jo 1 autoantigen [8]) | Autoreactivity (Athena) (RNP autoantigen [11]) | Autoreactivity (Athena) (SSA autoantigen [12]) | Autoreactivity (Athena) (SSB autoantigen [13]) | Autoreactivity (Athena) (Histone autoantigen [14]) | Autoreactivity (Athena) (Sm autoantigen [15]) | Autoreactivity (Athena) (Scl 70 autoantigen [16]) | Autoreactivity (Athena) (centromere B autoantigen [17]) | Autoreactivity (Athena) (Jo 1 autoantigen [18]) | background substracted RFUs [19] [RFU] | background substracted RFUs (HCV E2 (HCV)) [RFU] | Autoreactivity (Athena) (RNP autoantigen [20]) | Autoreactivity (Athena) (SSA autoantigen [21]) | also measured
CH03 (antibody) | 74 | 6 | 6 | 359 | 9 | 8 | 30 | 4 | 132 | 9 | 7 | 844 | 24 | 12 | 98 | 5 | 1 | 2910 | 51 | 5 | Kd [9]: 15.6 nM; Kd (A244 gD- gp120 (HIV-1)): 728 nM; Kd [10]: 1060 nM; Autoreactivity (Athena) (SSB autoantigen [22]): 5; Autoreactivity (Athena) (Histone autoantigen [23]): 231; Autoreactivity (Athena) (Sm autoantigen [24]): 7; Autoreactivity (Athena) (Scl 70 autoantigen [25]): 4; Autoreactivity (Athena) (centromere B autoantigen [26]): 19; Autoreactivity (Athena) (Jo 1 autoantigen [27]): 3; Autoreactivity (Athena) (RNP autoantigen [28]): 70; Autoreactivity (Athena) (SSA autoantigen [29]): 6; Autoreactivity (Athena) (SSB autoantigen [30]): 4; Autoreactivity (Athena) (Histone autoantigen [31]): 386; Autoreactivity (Athena) (Sm autoantigen [32]): 10; Autoreactivity (Athena) (Scl 70 autoantigen [33]): 7; Autoreactivity (Athena) (centromere B autoantigen [34]): 34; Autoreactivity (Athena) (Jo 1 autoantigen [35]): 4
Synagis (anti-RSV control mAb) (antibody) |  |  |  |  |  |  |  |  |  |  |  |  |  |  |  |  | 1 | 0.5 |  |  | 
CH02 (antibody) | 6 | 5 | 3.5 | 8.5 | 2.5 | 1.5 | 7 | 1 | 12.5 | 5.5 | 4.5 | 15.5 | 3.5 | 2.5 | 12.5 | 2 | 0.3 | 333 | 5 | 5 | Kd [9]: 450 nM; Autoreactivity (Athena) (SSB autoantigen [22]): 5; Autoreactivity (Athena) (Histone autoantigen [23]): 7; Autoreactivity (Athena) (Sm autoantigen [24]): 2.5; Autoreactivity (Athena) (Scl 70 autoantigen [25]): 2; Autoreactivity (Athena) (centromere B autoantigen [26]): 6; Autoreactivity (Athena) (Jo 1 autoantigen [27]): 1.5; Autoreactivity (Athena) (RNP autoantigen [28]): 9; Autoreactivity (Athena) (SSA autoantigen [29]): 6; Autoreactivity (Athena) (SSB autoantigen [30]): 4.5; Autoreactivity (Athena) (Histone autoantigen [31]): 11.5; Autoreactivity (Athena) (Sm autoantigen [32]): 3; Autoreactivity (Athena) (Scl 70 autoantigen [33]): 2; Autoreactivity (Athena) (centromere B autoantigen [34]): 9.5; Autoreactivity (Athena) (Jo 1 autoantigen [35]): 1.5
4E10 (antibody) | 9 | 169 | 124 | 160 | 5 | 3 | 13 | 87 | 20 | 306 | 254 | 333 | 9 | 3 | 31 | 156 | 0 | 89.2 | 6 | 115 | Autoreactivity (Athena) (SSB autoantigen [22]): 93; Autoreactivity (Athena) (Histone autoantigen [23]): 113; Autoreactivity (Athena) (Sm autoantigen [24]): 4; Autoreactivity (Athena) (Scl 70 autoantigen [25]): 2; Autoreactivity (Athena) (centromere B autoantigen [26]): 9; Autoreactivity (Athena) (Jo 1 autoantigen [27]): 65; Autoreactivity (Athena) (RNP autoantigen [28]): 15; Autoreactivity (Athena) (SSA autoantigen [29]): 247; Autoreactivity (Athena) (SSB autoantigen [30]): 206; Autoreactivity (Athena) (Histone autoantigen [31]): 274; Autoreactivity (Athena) (Sm autoantigen [32]): 7; Autoreactivity (Athena) (Scl 70 autoantigen [33]): 4; Autoreactivity (Athena) (centromere B autoantigen [34]): 19; Autoreactivity (Athena) (Jo 1 autoantigen [35]): 138
CH05 (antibody) | 3.5 | 8 | 5 | 11 | 3.5 | 1.5 | 6.5 | 2.5 | 9 | 27 | 13 | 21.5 | 2.5 | 2 | 14.5 | 9 | 5.5 | 1.3 | 3 | 7 | Kd [9]: 26.1 nM; Kd (A244 gD- gp120 (HIV-1)): 340 nM; Kd [10]: 1450 nM; Autoreactivity (Athena) (SSB autoantigen [22]): 6; Autoreactivity (Athena) (Histone autoantigen [23]): 10; Autoreactivity (Athena) (Sm autoantigen [24]): 2.5; Autoreactivity (Athena) (Scl 70 autoantigen [25]): 1.5; Autoreactivity (Athena) (centromere B autoantigen [26]): 6; Autoreactivity (Athena) (Jo 1 autoantigen [27]): 2.5; Autoreactivity (Athena) (RNP autoantigen [28]): 4.5; Autoreactivity (Athena) (SSA autoantigen [29]): 12.5; Autoreactivity (Athena) (SSB autoantigen [30]): 5.5; Autoreactivity (Athena) (Histone autoantigen [31]): 14; Autoreactivity (Athena) (Sm autoantigen [32]): 3; Autoreactivity (Athena) (Scl 70 autoantigen [33]): 1.5; Autoreactivity (Athena) (centromere B autoantigen [34]): 9; Autoreactivity (Athena) (Jo 1 autoantigen [35]): 3.5
